How the values were obtained:
[1] = biological target: T1, CD3ε homodimer protein (human, UniProt P07766 23-126, limits assumed); assay: SPR (Biacore T200, 25°C); CD3ε homodimer immobilized on CM4, one-arm antibody as analyte; first of two CE115HA340 lines (r6, 2.0E-08); the second line (r8) gives 2.7E-08
T1 construct: also called human CD3ε homodimer protein; CD3e homodimer

[2] = biological target: T1, CD3ε homodimer protein; assay: SPR (Biacore T200, 25°C); CD3ε homodimer immobilized on CM4, one-arm antibody as analyte

T1 sequence (P07766 23-126 limits assumed): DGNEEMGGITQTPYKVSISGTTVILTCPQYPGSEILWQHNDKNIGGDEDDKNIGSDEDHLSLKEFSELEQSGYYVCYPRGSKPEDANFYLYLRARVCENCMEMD

Kd [1]: 0.02 µM
Kd [2]: 0.027 µM
B1: CE115HA340 / GLS3000 one-arm antibody (antibody, human IgG1, kappa, L234A L235A, N297A)
heavy: QVQLVESGGGLVQPGRSLRLSCAASGFTFSNAWMHWVRQAPGKGLEWVAQIKDKSNNYATYYAESVKGRFTISRDDSKNSIYLQMNSLKTEDTAVYYCRYVHYAAYYGVDAWGQGTTVTVSSASTKGPSVFPLAPSSKSTSGGTAALGCLVKDYFPEPVTVSWNSGALTSGVHTFPAVLQSSGLYSLSSVVTVPSSSLGTQTYICNVNHKPSNTKVDKKVEPKSCDKTHTCPPCPAPEAAGGPSVFLFPPKPKDTLMISRTPEVTCVVVDVSHEDPEVKFNWYVDGVEVHNAKTKPREEQYASTYRVVSVLTVLHQDWLNGKEYKCKVSNKALPAPIEKTISKAKGQPREPQVYTLPPSRCELTKNQVSLSCAVKGFYPSDIAVEWESNGQPENNYKTTPPVLDSDGSFFLVSKLTVDKSRWQQGNVFSCSVMHEALHNHYTQKSLSLSPDYKDDDDK
chain: EPKSSDKTHTCPPCPAPELLGGPSVFLFPPKPKDTLMISRTPEVTCVVVDVSHEDPEVKFNWYVDGVEVHNAKTKPREEQYNSTYRVVSVLTVLHQDWLNGKEYKCKVSNKALPAPIEKTISKAKGQPREPQVCTLPPSRDELTKNQVSLWCLVKGFYPSDIAVEWESNGQPENNYKTTPPVLDSDGSFFLYSKLTVDKSRWQQGNVFSCSVMHEALHNRYTQKSLSLSP
light: DIVMTQSPLSLPVTPGEPASISCRSSQSLVHSNRNTYLHWYQQKPGQAPRLLIYKVSNRFSGVPDRFSGSGSGTDFTLKISRVEAEDVGVYYCGQGTQVPYTFGQGTKLEIKRTVAAPSVFIFPPSDEQLKSGTASVVCLLNNFYPREAKVQWKVDNALQSGNSQESVTEQDSKDSTYSLSSTLTLSKADYEKHKVYACEVTHQGLSSPVTKSFNRGEC
notes: one-arm antibody

— patent publication US20220040297A1 (Chugai, published 2022)
